From patent US20200150131A1

What was measured:
[1] = target: CML conjugated to KLH (CML-KLH); assay: direct binding ELISA, CML-KLH coat 1 ug/mL, antibody at 50 ug/mL
[2] = target: CML conjugated to KLH (CML-KLH); assay: direct binding ELISA, CML-KLH coat 1 ug/mL, antibody at 16.67 ug/mL
[3] = target: CML conjugated to KLH (CML-KLH); assay: direct binding ELISA, CML-KLH coat 1 ug/mL, antibody at 1.85 ug/mL
[4] = target: CML conjugated to KLH (CML-KLH); assay: direct binding ELISA, CML-KLH coat 1 ug/mL, antibody at 5.56 ug/mL
[5] = target: CML conjugated to KLH (CML-KLH); assay: direct binding ELISA, CML-KLH coat 1 ug/mL, antibody at 0.07 ug/mL
[6] = target: CML conjugated to KLH (CML-KLH); assay: direct binding ELISA, CML-KLH coat 1 ug/mL, antibody at 0.62 ug/mL
[7] = target: CML conjugated to KLH (CML-KLH); assay: direct binding ELISA, CML-KLH coat 1 ug/mL, antibody at 0.21 ug/mL

Substance: anti-carboxymethyl lysine (CML) antibody (R&D Systems, MAB3247)
- OD450 [1]: 0.462 OD450
- OD450 [2]: 0.312 OD450
- OD450 [3]: 0.092 OD450
- OD450 [4]: 0.165 OD450
- OD450 [5]: 0.086 OD450
- OD450 [6]: 0.083 OD450
- OD450 [7]: 0.075 OD450
